The values that follow come from publication PMC3858281, “Structural Characterisation of the Nuclear Import Receptor Importin Alpha in Complex with the Bipartite NLS of Prp20” (PLoS ONE, 2013).

The target of the test is Mouse IMPαΔIBB (residues 70–529) (mouse, UniProt P52293 70-529). Put plainly: crystal structure; complex of IMPαΔIBB and Prp20 NLS (GST tag removed by thrombin) in 20 mM Tris pH 7.8, 125 mM NaCl, 20 mg/mL; crystals in 500 mM sodium citrate pH 6–8, 10 mM DTT; 2.1 Å. Conditions: both partners purified.

B1: Prp20 (S. cerevisiae RanGEF) NLS (residues 3–23) (peptide)
chain: KRTVATNGDASGAHRAKKMSK
notes: Prp20 (RanGEF), S. cerevisiae, bipartite NLS, residues 3-23; Only KR4 and RAKKMSK23 are in the final model; also called Prp20 NLS; Prp20NLS
As for B1, the binding result is “binds”.
